From patent publication US20090203538A1 (INSTITUTE FOR ANTIBODIES, published 2009) come the findings set out here.

First the molecules themselves.
B1: 040-107 antibody (antibody, V domains shown)
VH: EVQLVESGGGVVQPGGSLRLSCAASGFNFDVYGMNWVRQVPGKGLEWVSLINGDGGLRYYADSVKGRFTVSRDNSRNSLYLQMNSLRSEDTALYYCVKGNFQQWGQGTLVTVSR
VL: SYVLTQPPSVSVAPGKTARITCGGNNIGSKSVHWYQQKPGQAPVLVIYYDSDRPSGIPERFSGSNSGNTATLTISRVEAGDEADYYCQVWDSSSDHVVFGGGTKLTVLG
notes: Clone of the scFv-CL-cp3 phage library; pp type (protein A fusion) used for immunoprecipitation
B2: 035-234 antibody (antibody, V domains shown)
VH: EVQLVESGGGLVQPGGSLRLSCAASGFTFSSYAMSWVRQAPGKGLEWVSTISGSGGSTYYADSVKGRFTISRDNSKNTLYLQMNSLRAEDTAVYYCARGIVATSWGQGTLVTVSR
VL: SYELTQPPSVSVAPGQTARITCGGNKIGSKSVHWYQQKQGQAPVLVIYLDRDRPSGIPERFSGSNSGNTATLTITRVEAEDEADYYCHLWDSGSDQVFGGGTKLTVLG
notes: as for B1
B3: 041-118 antibody (antibody, V domains shown)
VH: EVQLVESGGGLVQPGGSLRLSCAASGFTFDDYAMHWVRQAPGKGLEWVSLISGDGGSTYYADSVKDRFTISRDNSKNSLYLQMNSLRAEDTAVYYCARGNYFDYWGQGTLVTVSR
VL: SYELTQPLSVSVALGQTARITCGGNNIGSKNVHWYQQKPGQAPVLVIYRDSNRPSGIPERFSGSNSGNTATLTISRAQAGDEADYYCQVWDSSVVFGGGTKLTVLG
notes: as for B1
B4: 064-003 antibody (antibody, V domains shown)
VH: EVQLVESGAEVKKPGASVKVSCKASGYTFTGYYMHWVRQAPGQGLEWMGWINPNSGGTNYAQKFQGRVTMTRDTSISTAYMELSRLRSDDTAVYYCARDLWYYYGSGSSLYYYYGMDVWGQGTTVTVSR
VL: QSVLTQPPSVSGAPGQRVTISCTGSSSNIGAGYDVHWYQQLPGTAPKLLIYGNSNRPSGVPDRFSGSKSGTSASLAITGLQAEDEADYYCQSYDSSLSGVVFGGGTKLTVLG
notes: Clone of the scFv-CL-cp3 phage library
B5: 065-030 antibody (antibody, V domains shown)
VH: QVQLQQWGAGLLKPSETLSLTCAAYGGSFSGYYWSWIRQPPGKGLEWIGEINHSGSTNYNPSLKSRVTISVDTSKNQFSLKLSSVTAADTAVYYCARTYYGSGSYQYNWFDPWGQGTLVTVSR
VL: QSVLTQPPSVSGAPGQRVTISCTGSSSNIGAGYDVHWYQQLPGTAPKLLIYGNSNRPSGVPDRFSGSKSGTSASLAITGLQAEDEADYYCQSYDSSLSGVVFGGGTKLTVLG
notes: as for B4
B6: 066-019 antibody (antibody, V domains shown)
VH: QVQLQESGPGLVKPSQTLSLTCTVSGGSISSGDYYWSWIRQPPGKGLEWIGYIYYSGSTYYNPSLKSRVTISVDTSKNQFSLKLSSVTAADTAVYYCARGTGDLEWFDPWGQGTLVTVSR
VL: QSVLTQPPSVSGAPRQTVTISCSGSSSNIGQNSVTWYQRLPGEAPKLLIYYDDLLHSGVSDRFSGSKSGTSASLAISGLQSEDEAEYYCASWDDSLKGPVFGGGTKLTVLG
notes: as for B4
B7: 079-085 antibody (antibody, V domains shown)
VH: EVQLVESGGGLVQPGGSLRLSCAASGFTFSSYSMNWVRQAPGKGLEWVSYISSSSSTIYYADSVKGRFTISRDNAKNSLYLQMNSLRDEDTAVYYCAREGPRGSYYYFDYWGQGTLVTVSR
VL: NFMLTQPHSVSESPGKTVTISCTRSSGSIASNYVQWYQQRPGSAPTTVIYEDNQRPSGVPDRFSGSIDSSSNSASLTISGLKTEDEADYYCQSYDSSNWVFGGGTKLTVLG
notes: as for B4
B8: 065-358 antibody (antibody, V domains shown)
VH: EVQLVESGGGLVQPGGSLRLSCAASGFTFSSYSMNWVRQAPGKGLEWVSYISSSSSTIYYADSVKGRFTISRDNAKNSLYLQMNSLRDEDTAVYYCARDNLEGLDYWGQGTLVTVSR
VL: SYVLTQPPSVSVAPGKTARITCGGNNIGSKSVHWYQQKPGQAPVLVIYYDSDRPSGIPERFSGSNSGNTATLTISRVEAGDEADYYCQVWDSSSDHVVFGGGTKLTVLG
notes: as for B4
B9: 064-044 antibody (antibody, V domains shown)
VH: QVQLVQSGAEVKKPGASVKVSCKVSGYTLTELSMHWVRQAPGKGLEWMGGFDPEDGETIYAQKFQGRVTMTEDTSTDTAYMELSSLRSEDTAVYYCATDLDYYGSGSYAFDIWGQGTTVTVSR
VL: QSALTQPASVSGSPGQSITISCTGTSSDVGSYNLVSWYQQHPGKAPKLMIYEGSKRPSGVSNRFSGSKSGNTASLTISGLQAEDEADYYCSSYTSSSTWVFGGGTKLTVLG
notes: as for B4
B10: 067-126 antibody (antibody, V domains shown)
VH: QVQLQESGPGLVKPSGTLSLTCAVSGGSISSSNWWSWVRQPPGKGLEWIGEIYHSGSTNYNPSLKSRVTISVDKSKNQFSLKLSSVTAADTAVYYCARGGSYYFDYWGQGTLVTVSR
VL: QSALTQPASVSGSPGQSITISCTGTISDVGGYDFVSWYQHHPGKAPKLLIYDVNNRPSGVSHRFSGSKSGNTASLTISGLQAEDEATYYCSSYSNRHSLIVFGSGTQVVGLG
notes: as for B4
B11: 067-287 antibody (antibody, V domains shown)
VH: QVQLQQWGAGLLKPSETLSLTCTVHGGSFDDYYWTWIRQPPGGGLEWIGEMNSGRTYNYNPFLESRASIDVDTFKKQFSLALRSVTAADTAVYYCARGAYVNYYYIDVWGDGTTVTVSR
VL: QSALTQPASVSGSPGQTITISCTGTISDVGGYDFVSWYQHHPGKAPKLLIYDVNNRPSGVSHRFSGSKSGNTASLTISGLQAEDEATYYCSSYSNRHSLIVFGSGTQVVGLG
notes: as for B4
B12: 067-133 antibody (antibody, V domains shown)
VH: QVQLQQWGAGLLKPSETLSLTCAVYGGSFSGYYWSWIRQPPGKGLEWIGEINHSGSTNYNPSLKSRVTISVDTSKNQFSLKLSSVTAADTAVYYCARGGGVEALNYGMDVWGQGTTVTVSR
VL: QSALTQPASVSGSPGQTITISCTGTISDVGGYDFVSWYQHHPGKAPKLLIYDVNNRPSGVSHRFSGSKSGNTASLTISGLQAEDEATYYCSSYSNRHSLIVFGSGTQVVGLG
notes: as for B4
B13: 045-134 antibody (antibody, V domains shown)
VH: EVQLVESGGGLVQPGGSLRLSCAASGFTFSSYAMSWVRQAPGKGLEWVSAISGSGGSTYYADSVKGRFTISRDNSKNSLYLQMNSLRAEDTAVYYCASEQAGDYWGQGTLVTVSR
VL: QSVLTQPPSASGTPGQRVTISCSGSSSNIGSNYVYWYQQLPGTAPKLLIYRNNQRPSGVPDRFAGSKSGTSATLGITGLQTGDEADYYCGTWDSSLSAGVFGGGTKLTVLG
notes: as for B4
B14: 029-067 antibody (antibody, V domains shown)
VH: QVQLQQSGAEVKKPGASVKVSCKASGYTFTTYYMHWVRQAPGQGLEWMGIINPSGENTNYAQKFQGRVTMTRDTSTTTVYMELSSLRSEDTAVYYCARSFIGTRGGGLDVWGQGTTVTVSR
VL: QSVLTQPPSVSGAPGQRVNISCAGSSSNIGAGYDVHWYQQIPGTAPKLLMYGNSNRPSGVPDRFSGSKSGASASLAITRLQAEDEADYYCQSYDSSLSGSRVFGTGTKVTVLG
notes: as for B4
B15: 062-101 antibody (antibody, V domains shown)
VH: QVQLVQSGAEVKKPGASVKVSCKASGYTFTSYYMHWVRQAPGQGLEWMGIINPSGGSTSYAQKFQGRVTMTRDTSTSTVYMELSSLRSEDTAVYYCARELSAATAFDIWGQGTMVTVSR
VL: ETTLTQSPFSVSASVGDRVTITCRASQYISRWLAWYQQRPGKAPKLLIYAAASLQSGVPSRFSGSGSGTDFTLTISSLQPEDFATYYCQQANSFPVTFGQGTRLEIK
notes: as for B4
B16: 084-103 antibody (antibody, V domains shown)
VH: QVQLVQSGAEVKKPGSSVKVSCKASGGTFSSYAISWVRQAPGQGLEWMGWMNPNSGNTGYAQKFQGRVTMTRNTSISTAYMELSSLRSEDTAVYYCARDVGIGVFDYWGQGTLVTVSR
VL: SYVLTQPPSVSVAPGKTARITCGGNNIGSKSVHWYQQKPGQAPVLVIYYDSDRPSGIPERFSGSNSGNTATLTISRVEAGDEADYYCQVWDSSSDHVVFGGGTKLTVLG
notes: as for B4
B17: 029-143 antibody (antibody, V domains shown)
VH: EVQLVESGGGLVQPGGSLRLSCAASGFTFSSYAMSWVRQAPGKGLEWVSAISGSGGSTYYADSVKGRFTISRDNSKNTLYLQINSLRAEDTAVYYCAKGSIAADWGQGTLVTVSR
VL: SSELTQDPAVSVALGQTVRITCQGDSLRSYYASWYQQKPGQAPVLVIYGKNNRPSGIPDRFSGSSSGNTASLTITGAQAEDEADYYCNSRDSSGNVVFGGGTKLTVLG
notes: as for B4
B18: 062-109 antibody (antibody, V domains shown)
VH: QVQLVQSGAEVKKPGASVKVSCKASGYTFTSYGISWVRQAPGQGLEWMGWISAYNGNTNYAQKLQGRVTMTTDTSTSTAYMELRSLRSDDTAVYYCARVGYYYYYGMDVWGQGTTVTVSR
VL: QSALTQPASVSGSPGQSITISCTGTSSDVGSYNLVSWYQQHPGKAPKLMIYEGSKRPSGVSNRFSGSKSGNTASLTISGLQAEDEADYYCSSYTSSSTWVFGGGTKLTVLG
B19: 083-131 antibody (antibody, V domains shown)
VH: EVQLVESGGGVVQPGRSLRLSCAASGFTFDDYAMHWVRQAPGKGLEWVSGISWNSGSIGYADSVKGRFTISRDNAKNSLYLQMNSLRAEDTAVYYCATEEWWRFDLWGRGTLVTVSR
VL: QSALTQPPSASGSPGQSVTISCTGTSSDVDDYNYVSWYQQHPGKAPKLMIYEVTKRPSGVPDRFSGSKSGNTASLTISGLQAEDEADYYCSSYVGSDNRVFGTGTKVTVPG
notes: as for B4

T3 sequence (P08581 25-1390 L1272V limits assumed): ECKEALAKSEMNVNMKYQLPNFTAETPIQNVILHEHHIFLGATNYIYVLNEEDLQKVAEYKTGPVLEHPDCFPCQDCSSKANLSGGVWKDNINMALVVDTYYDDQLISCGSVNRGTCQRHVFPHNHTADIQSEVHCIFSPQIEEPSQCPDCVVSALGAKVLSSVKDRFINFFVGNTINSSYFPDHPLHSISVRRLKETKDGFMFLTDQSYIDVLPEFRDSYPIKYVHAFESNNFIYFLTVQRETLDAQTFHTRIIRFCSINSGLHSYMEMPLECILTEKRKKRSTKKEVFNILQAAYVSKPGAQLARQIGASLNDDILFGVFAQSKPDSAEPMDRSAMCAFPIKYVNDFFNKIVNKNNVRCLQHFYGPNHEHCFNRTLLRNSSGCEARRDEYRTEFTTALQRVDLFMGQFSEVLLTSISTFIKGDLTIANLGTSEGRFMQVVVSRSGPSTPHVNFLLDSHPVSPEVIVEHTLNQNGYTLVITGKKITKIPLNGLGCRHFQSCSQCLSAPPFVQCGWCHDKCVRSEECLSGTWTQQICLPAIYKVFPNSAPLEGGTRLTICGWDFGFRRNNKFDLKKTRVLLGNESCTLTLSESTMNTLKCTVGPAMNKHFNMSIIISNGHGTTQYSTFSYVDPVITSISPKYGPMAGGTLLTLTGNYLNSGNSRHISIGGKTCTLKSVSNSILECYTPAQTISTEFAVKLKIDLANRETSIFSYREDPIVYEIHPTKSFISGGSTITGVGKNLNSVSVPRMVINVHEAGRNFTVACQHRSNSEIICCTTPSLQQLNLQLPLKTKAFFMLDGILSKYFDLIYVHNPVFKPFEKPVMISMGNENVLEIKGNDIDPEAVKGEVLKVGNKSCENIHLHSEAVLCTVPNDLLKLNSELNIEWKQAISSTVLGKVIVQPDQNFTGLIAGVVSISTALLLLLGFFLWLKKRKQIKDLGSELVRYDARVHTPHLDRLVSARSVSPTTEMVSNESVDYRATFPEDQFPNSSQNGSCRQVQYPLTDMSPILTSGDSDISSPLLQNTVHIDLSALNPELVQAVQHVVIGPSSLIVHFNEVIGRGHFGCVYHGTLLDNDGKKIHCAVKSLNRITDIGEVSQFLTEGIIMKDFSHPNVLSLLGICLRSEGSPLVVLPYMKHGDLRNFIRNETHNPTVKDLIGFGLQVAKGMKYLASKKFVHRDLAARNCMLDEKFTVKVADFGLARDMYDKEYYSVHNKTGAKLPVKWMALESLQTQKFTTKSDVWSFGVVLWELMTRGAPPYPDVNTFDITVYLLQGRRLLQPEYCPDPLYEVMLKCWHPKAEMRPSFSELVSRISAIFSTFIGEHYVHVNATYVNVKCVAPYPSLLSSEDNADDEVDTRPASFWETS
Sequence of CD44 (P16070 24-742): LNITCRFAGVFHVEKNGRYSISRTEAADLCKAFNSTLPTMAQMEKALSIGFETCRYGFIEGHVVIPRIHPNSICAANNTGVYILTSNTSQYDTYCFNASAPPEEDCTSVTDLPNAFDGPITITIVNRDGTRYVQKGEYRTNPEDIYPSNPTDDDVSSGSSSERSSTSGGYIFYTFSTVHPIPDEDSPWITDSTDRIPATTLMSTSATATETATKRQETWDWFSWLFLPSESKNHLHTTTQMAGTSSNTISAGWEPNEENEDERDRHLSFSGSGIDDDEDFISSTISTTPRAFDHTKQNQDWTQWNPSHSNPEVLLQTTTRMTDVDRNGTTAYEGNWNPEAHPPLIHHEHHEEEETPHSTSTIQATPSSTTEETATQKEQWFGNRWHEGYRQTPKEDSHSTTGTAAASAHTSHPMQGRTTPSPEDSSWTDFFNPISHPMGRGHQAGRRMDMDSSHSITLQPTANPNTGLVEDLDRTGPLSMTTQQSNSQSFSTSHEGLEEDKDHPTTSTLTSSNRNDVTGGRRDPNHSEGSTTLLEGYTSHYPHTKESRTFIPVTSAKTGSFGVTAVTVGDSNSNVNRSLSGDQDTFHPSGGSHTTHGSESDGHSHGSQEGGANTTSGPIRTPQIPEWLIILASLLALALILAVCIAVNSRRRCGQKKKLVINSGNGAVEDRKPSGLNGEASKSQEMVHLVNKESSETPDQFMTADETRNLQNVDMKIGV

In the first test the target is T1, ALCAM (Activated leukocyte cell adhesion molecule) (Homo sapiens (Human), UniProt Q13740 28-583).
T1 construct: Native protein on cancer cell lines; also called CD166 antigen; CD166
T1 sequence: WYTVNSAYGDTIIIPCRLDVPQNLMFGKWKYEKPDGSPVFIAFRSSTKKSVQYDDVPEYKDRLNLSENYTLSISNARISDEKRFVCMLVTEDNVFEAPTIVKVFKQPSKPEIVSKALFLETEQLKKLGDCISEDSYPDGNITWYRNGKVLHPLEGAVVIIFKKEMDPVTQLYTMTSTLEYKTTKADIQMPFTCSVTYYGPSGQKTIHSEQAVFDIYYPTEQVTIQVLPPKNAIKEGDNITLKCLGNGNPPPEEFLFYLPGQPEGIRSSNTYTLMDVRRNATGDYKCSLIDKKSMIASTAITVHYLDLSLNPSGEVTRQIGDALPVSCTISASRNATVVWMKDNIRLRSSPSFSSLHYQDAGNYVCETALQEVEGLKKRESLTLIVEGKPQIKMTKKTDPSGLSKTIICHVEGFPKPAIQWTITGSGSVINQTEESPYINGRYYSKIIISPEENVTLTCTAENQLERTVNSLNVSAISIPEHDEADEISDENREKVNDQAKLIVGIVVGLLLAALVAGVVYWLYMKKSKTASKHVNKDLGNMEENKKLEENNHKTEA
The experiment in a line: flow cytometry histograms on various cell lines, antigen identified later.
For B1, the binding result is on record as “binds”.

Consider B2, for which the binding result is on record as “binds”.

Another test addresses T1, ALCAM (Activated leukocyte cell …). The experiment in a line: immunoprecipitation from biotin-labelled cell lysate with pp type antibody, mass spectrometry.
As to B3, the binding result is reported as “binds”.

A further test has as its target CD44 (Homo sapiens (Human), UniProt P16070 24-742). The experiment in a line: antigen assigned by the filing's classifying and identification method; details for this clone not given.
Regarding B4, the binding result was “binds”.

The target of a further test is T2, LAR (Leukocyte common Antigen-Related) (Homo sapiens (Human), UniProt P10586 30-1907, limits assumed).
T2 construct: also called PTP-LAR; protein tyrosine phosphatase receptor type F (PTPRF)
The description is as above.
Regarding B5, the binding result is “binds”. In the case of B6, the binding result was “binds”. Consider B7, for which the binding result is recorded as “binds”. Take B8: the binding result is given as “binds”.

Consider B9, for which the binding result is listed as “binds”.

Another test addresses T3, HGFR (Hepatocyte growth factor receptor) (Homo sapiens (Human), UniProt P08581 25-1390).
T3 construct: also called Met
The test is described as above.
In the case of B10, the binding result was “binds”.

In the case of B11, the binding result is on record as “binds”. With B12, the binding result is given as “binds”.

The target of the next test is T1, ALCAM (Activated leukocyte cell …). The test is described as above.
B13: the binding result is “binds”. As to B14, the binding result is recorded as “binds”. With B15, the binding result was “binds”. The same measure, in the same setting: the entry for B16 is “binds”; for B17 it is “binds”; for B18 it is “binds”. In the case of B19, the binding result is recorded as “binds”.
